Results published in patent publication CN114591431A.

Target: 重组人GAS6 his 蛋白(Novoprotein，Cat#C01W) (human) (UniProt Q14393)
Test: ELISA, coated human GAS6 his 0.5 ug/ml, positive control

UniProt Q14393, sequence (Q14393 31-678 limits assumed, stated change not applied): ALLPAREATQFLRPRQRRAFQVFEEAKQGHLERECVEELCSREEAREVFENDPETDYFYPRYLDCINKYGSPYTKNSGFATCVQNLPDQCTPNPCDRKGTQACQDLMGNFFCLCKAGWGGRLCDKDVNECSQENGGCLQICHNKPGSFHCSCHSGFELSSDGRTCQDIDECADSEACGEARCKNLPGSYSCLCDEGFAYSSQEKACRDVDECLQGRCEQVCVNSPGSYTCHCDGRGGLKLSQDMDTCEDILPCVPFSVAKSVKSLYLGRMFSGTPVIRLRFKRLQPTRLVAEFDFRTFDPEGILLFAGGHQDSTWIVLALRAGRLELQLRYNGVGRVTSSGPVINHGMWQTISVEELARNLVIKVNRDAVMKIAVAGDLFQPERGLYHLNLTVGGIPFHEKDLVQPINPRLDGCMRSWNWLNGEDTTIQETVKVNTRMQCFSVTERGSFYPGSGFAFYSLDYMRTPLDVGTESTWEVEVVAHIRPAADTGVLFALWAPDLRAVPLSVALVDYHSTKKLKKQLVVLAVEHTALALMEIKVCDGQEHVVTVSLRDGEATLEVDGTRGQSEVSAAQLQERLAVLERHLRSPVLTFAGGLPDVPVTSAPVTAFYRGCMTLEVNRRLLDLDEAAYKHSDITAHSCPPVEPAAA

EC50: 0.43 nM
Substance: anti-huGas6 antibody (Santa cruz, sc-376087)
